Results: the supplement of paper PMC9112550, “Optimization of the antimicrobial peptide Bac7 by deep mutational scanning” (BMC Biology, 2022)

Test system: Escherichia coli TOP10
Test: shrunken log2 fold change of peptide-encoding DNA abundance (4.5 h post-induction vs induction); higher = less antimicrobial activity (less host growth inhibition)
Conditions: time post-induction: 4.5 h; library: site-saturation at positions 5, 18, 19, 20
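Note: peptides expressed intracellularly from a pBAD plasmid library in pooled LB shake-flask culture, induced with 0.3% L-arabinose, DNA abundance read by NGS, three biological replicates, DESeq2 with apeglm shrinkage.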

Row | Sequence | shrunken log2 fold change
1 | RRIRTRPPRLPRPRPRPVVEPRP | 0.0529
2 | RRIRHRPPRLPRPRPRPHHTPRP | -0.71
3 | RRIRDRPPRLPRPRPRPKRLPRP | -0.0451
4 | RRIRVRPPRLPRPRPRPRLGPRP | 0.223
5 | RRIRMRPPRLPRPRPRPFMDPRP | -0.119
6 | RRIRLRPPRLPRPRPRPMLYPRP | -0.232
7 | RRIRIRPPRLPRPRPRPHCWPRP | -0.27
8 | RRIRTRPPRLPRPRPRPTFIPRP | -0.39
9 | RRIRCRPPRLPRPRPRPKSKPRP | -0.338
10 | RRIRMRPPRLPRPRPRPPNMPRP | 0.268
11 | RRIRRRPPRLPRPRPRPCFSPRP | -0.14
12 | RRIRKRPPRLPRPRPRPPIFPRP | 0.269
13 | RRIRRRPPRLPRPRPRPLTCPRP | -0.12
14 | RRIRNRPPRLPRPRPRPCVSPRP | 0.0348
15 | RRIRHRPPRLPRPRPRPKNVPRP | -0.0354
16 | RRIRFRPPRLPRPRPRPVAIPRP | -0.0527
17 | RRIRERPPRLPRPRPRPVVLPRP | -0.0819
18 | RRIRSRPPRLPRPRPRPLQYPRP | -0.221
19 | RRIRCRPPRLPRPRPRPHSPPRP | -0.422
20 | RRIRNRPPRLPRPRPRPYYMPRP | -0.416
21 | RRIRQRPPRLPRPRPRPSDTPRP | -0.0683
22 | RRIRLRPPRLPRPRPRPKRFPRP | 0.104
23 | RRIRGRPPRLPRPRPRPINRPRP | -0.231
24 | RRIRCRPPRLPRPRPRPSGKPRP | -0.327
25 | RRIRNRPPRLPRPRPRPGLAPRP | 0.415

Row | Sequence | shrunken log2 fold change
26 | RRIRHRPPRLPRPRPRPWKSPRP | -0.0679
27 | RRIRHRPPRLPRPRPRPFMHPRP | -0.377
28 | RRIRSRPPRLPRPRPRPPPIPRP | 0.572
29 | RRIRIRPPRLPRPRPRPCCPPRP | -0.168
30 | RRIRGRPPRLPRPRPRPCEYPRP | 0.0669
31 | RRIRARPPRLPRPRPRPPIDPRP | 0.647
32 | RRIRKRPPRLPRPRPRPLGEPRP | 0.445
33 | RRIRSRPPRLPRPRPRPCGQPRP | 0.088
34 | RRIRFRPPRLPRPRPRPPNGPRP | -0.0591
35 | RRIRERPPRLPRPRPRPVAEPRP | 0.0949
36 | RRIRTRPPRLPRPRPRPEFLPRP | -0.536
37 | RRIRIRPPRLPRPRPRPWNYPRP | 0.0299
38 | RRIRVRPPRLPRPRPRPVWWPRP | -0.0476
39 | RRIRRRPPRLPRPRPRPTKKPRP | 0.253
40 | RRIRFRPPRLPRPRPRPAQWPRP | 0.296
41 | RRIRTRPPRLPRPRPRPLWQPRP | 0.0687
42 | RRIRGRPPRLPRPRPRPFLDPRP | 0.209
43 | RRIRTRPPRLPRPRPRPYIGPRP | -0.119
44 | RRIRLRPPRLPRPRPRPPHIPRP | 0.0882
45 | RRIRTRPPRLPRPRPRPQECPRP | -0.0262
46 | RRIRHRPPRLPRPRPRPMCHPRP | -0.00674
47 | RRIRDRPPRLPRPRPRPDARPRP | 1.31
48 | RRIRFRPPRLPRPRPRPFRVPRP | -0.119
49 | RRIRQRPPRLPRPRPRPVADPRP | 0.0976
50 | RRIRERPPRLPRPRPRPPHFPRP | 0.568

Row | Sequence | shrunken log2 fold change
51 | RRIRIRPPRLPRPRPRPEVNPRP | -0.294
52 | RRIRYRPPRLPRPRPRPCTTPRP | -0.256
53 | RRIRSRPPRLPRPRPRPASFPRP | -0.226
54 | RRIRWRPPRLPRPRPRPMHLPRP | -0.317
55 | RRIRWRPPRLPRPRPRPSCEPRP | 0.19
56 | RRIRKRPPRLPRPRPRPANHPRP | -0.235
57 | RRIRERPPRLPRPRPRPHSRPRP | -0.0374
58 | RRIRDRPPRLPRPRPRPLNTPRP | -0.0995
59 | RRIRFRPPRLPRPRPRPMATPRP | -0.227
60 | RRIRTRPPRLPRPRPRPSVRPRP | -0.155
61 | RRIRTRPPRLPRPRPRPGYAPRP | 0.111
62 | RRIRMRPPRLPRPRPRPPDVPRP | 0.00748
63 | RRIRERPPRLPRPRPRPPDPPRP | 0.106
64 | RRIRFRPPRLPRPRPRPIVPPRP | 0.0537
65 | RRIRKRPPRLPRPRPRPFTDPRP | -0.091
66 | RRIRKRPPRLPRPRPRPSPLPRP | 0.446
67 | RRIRCRPPRLPRPRPRPANCPRP | -0.364
68 | RRIRLRPPRLPRPRPRPTRLPRP | 0.432
69 | RRIRIRPPRLPRPRPRPQFKPRP | -0.609
70 | RRIRERPPRLPRPRPRPDPWPRP | -0.12
71 | RRIRPRPPRLPRPRPRPAKFPRP | 0.0407
72 | RRIRHRPPRLPRPRPRPNNFPRP | -0.0738
73 | RRIRFRPPRLPRPRPRPVPYPRP | -0.693
74 | RRIRFRPPRLPRPRPRPKICPRP | -0.0416
75 | RRIRMRPPRLPRPRPRPPCRPRP | 0.584

Row | Sequence | shrunken log2 fold change
76 | RRIRQRPPRLPRPRPRPTSPPRP | 0.218
77 | RRIRQRPPRLPRPRPRPKFWPRP | 0.104
78 | RRIRLRPPRLPRPRPRPGEWPRP | -0.00947
79 | RRIRHRPPRLPRPRPRPNASPRP | 0.0449
80 | RRIRDRPPRLPRPRPRPWWEPRP | 0.186
81 | RRIRDRPPRLPRPRPRPTCYPRP | 0.289
82 | RRIRERPPRLPRPRPRPAQLPRP | -0.124
83 | RRIRTRPPRLPRPRPRPFNFPRP | -0.617
84 | RRIRCRPPRLPRPRPRPGPLPRP | 0.213
85 | RRIRRRPPRLPRPRPRPFNLPRP | -0.109
86 | RRIRTRPPRLPRPRPRPMQPPRP | 0.0715
87 | RRIRSRPPRLPRPRPRPGTVPRP | -0.0347
88 | RRIRLRPPRLPRPRPRPTFHPRP | 0.258
89 | RRIRLRPPRLPRPRPRPGKWPRP | 0.121
90 | RRIRYRPPRLPRPRPRPCKNPRP | -1.05
91 | RRIRVRPPRLPRPRPRPYVVPRP | -0.0262
92 | RRIRFRPPRLPRPRPRPGLRPRP | 0.23
93 | RRIRRRPPRLPRPRPRPPAMPRP | 0.814
94 | RRIRWRPPRLPRPRPRPIFYPRP | -0.0652
95 | RRIRDRPPRLPRPRPRPIHLPRP | -0.0597
96 | RRIRVRPPRLPRPRPRPEFTPRP | -0.0269
97 | RRIRVRPPRLPRPRPRPMVSPRP | -0.188
98 | RRIRNRPPRLPRPRPRPVPWPRP | 0.23
99 | RRIRWRPPRLPRPRPRPYMHPRP | -0.48
100 | RRIRNRPPRLPRPRPRPTETPRP | -0.00947

Row | Sequence | shrunken log2 fold change
101 | RRIRHRPPRLPRPRPRPVHMPRP | -0.0408
102 | RRIRIRPPRLPRPRPRPWCWPRP | -0.146
103 | RRIRCRPPRLPRPRPRPHFCPRP | -0.649
104 | RRIRQRPPRLPRPRPRPRFAPRP | 0.141
105 | RRIRWRPPRLPRPRPRPGNPPRP | -0.139
106 | RRIRDRPPRLPRPRPRPGQDPRP | 0.945
107 | RRIRLRPPRLPRPRPRPEHDPRP | 0.0235
108 | RRIRWRPPRLPRPRPRPTGKPRP | 0.294
109 | RRIRERPPRLPRPRPRPFTSPRP | -0.209
110 | RRIRHRPPRLPRPRPRPFKCPRP | -0.0134
111 | RRIRGRPPRLPRPRPRPFMFPRP | 1.16
112 | RRIRGRPPRLPRPRPRPGWMPRP | 0.315
113 | RRIRNRPPRLPRPRPRPHNVPRP | -0.0343
114 | RRIRCRPPRLPRPRPRPDVDPRP | 0.0251
115 | RRIRSRPPRLPRPRPRPGDYPRP | -0.0123
116 | RRIRLRPPRLPRPRPRPYDHPRP | -0.165
117 | RRIRCRPPRLPRPRPRPSISPRP | -0.136
118 | RRIRIRPPRLPRPRPRPMKLPRP | -0.519
119 | RRIRRRPPRLPRPRPRPPRQPRP | 1.04
120 | RRIRKRPPRLPRPRPRPEWFPRP | 0.219
121 | RRIRRRPPRLPRPRPRPFNTPRP | -0.119
122 | RRIRLRPPRLPRPRPRPLNLPRP | -0.381
123 | RRIRARPPRLPRPRPRPFHVPRP | 0.00498
124 | RRIRHRPPRLPRPRPRPNIGPRP | -0.431
125 | RRIRRRPPRLPRPRPRPQMAPRP | 0.455

Row | Sequence | shrunken log2 fold change
126 | RRIRCRPPRLPRPRPRPSTMPRP | -0.509
127 | RRIRNRPPRLPRPRPRPYQDPRP | -0.064
128 | RRIRARPPRLPRPRPRPYWAPRP | -0.106
129 | RRIRWRPPRLPRPRPRPRKCPRP | 0.4
130 | RRIRERPPRLPRPRPRPWMQPRP | -0.327
131 | RRIRRRPPRLPRPRPRPEAYPRP | 0.15
132 | RRIRIRPPRLPRPRPRPSSVPRP | -1.03
133 | RRIRTRPPRLPRPRPRPHRTPRP | -0.615
134 | RRIRQRPPRLPRPRPRPLTLPRP | -0.104
135 | RRIRDRPPRLPRPRPRPTHMPRP | 0.381
136 | RRIRFRPPRLPRPRPRPPESPRP | 1.13
137 | RRIRKRPPRLPRPRPRPQLNPRP | 0.0489
138 | RRIRNRPPRLPRPRPRPRVTPRP | 0.0249
139 | RRIRCRPPRLPRPRPRPNNVPRP | -0.687
140 | RRIRARPPRLPRPRPRPIDRPRP | -0.027
141 | RRIRLRPPRLPRPRPRPFYWPRP | 0.228
142 | RRIRIRPPRLPRPRPRPVQHPRP | -0.38
143 | RRIRVRPPRLPRPRPRPNTKPRP | 0.181
144 | RRIRSRPPRLPRPRPRPDEAPRP | -0.104
145 | RRIRVRPPRLPRPRPRPQQRPRP | 0.0774
146 | RRIRDRPPRLPRPRPRPHYDPRP | 0.0428
147 | RRIRSRPPRLPRPRPRPQCTPRP | 0.294
148 | RRIRYRPPRLPRPRPRPYVFPRP | -0.0427
149 | RRIRRRPPRLPRPRPRPEREPRP | 0.297
150 | RRIRCRPPRLPRPRPRPEQYPRP | -0.322
